{"source": "paper PMC10167482", "origin": "cited, not measured here", "key": {"IFNAR2 (Homo sapiens)": {"biological_target": "IFNAR2 (Homo sapiens) (UniProt P48551)", "sequence (P48551 27-243)": "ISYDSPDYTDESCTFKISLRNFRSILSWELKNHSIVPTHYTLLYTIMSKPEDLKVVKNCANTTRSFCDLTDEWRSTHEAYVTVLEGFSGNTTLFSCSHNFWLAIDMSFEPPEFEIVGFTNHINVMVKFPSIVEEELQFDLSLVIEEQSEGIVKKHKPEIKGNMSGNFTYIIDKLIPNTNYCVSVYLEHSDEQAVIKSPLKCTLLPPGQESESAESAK"}, "IFNAR1 (Homo sapiens)": {"biological_target": "IFNAR1 (Homo sapiens) (UniProt P17181)", "sequence (P17181 28-436)": "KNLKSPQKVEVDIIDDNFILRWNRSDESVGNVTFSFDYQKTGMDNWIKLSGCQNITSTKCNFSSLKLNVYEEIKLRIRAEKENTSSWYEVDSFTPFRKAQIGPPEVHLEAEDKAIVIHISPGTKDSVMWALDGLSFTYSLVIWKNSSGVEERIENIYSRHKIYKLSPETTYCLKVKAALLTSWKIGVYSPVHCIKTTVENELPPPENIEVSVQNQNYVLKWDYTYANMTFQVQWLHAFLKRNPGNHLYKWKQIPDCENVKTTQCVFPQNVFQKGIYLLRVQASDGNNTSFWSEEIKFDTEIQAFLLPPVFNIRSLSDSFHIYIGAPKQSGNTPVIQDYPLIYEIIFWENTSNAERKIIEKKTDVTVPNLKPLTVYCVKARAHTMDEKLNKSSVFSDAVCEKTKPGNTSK"}}, "data": [{"substance": "IFN-β (from UniProt P01574)", "values": [{"measurement": "Kd", "setting": "IFNAR2 (Homo sapiens)", "result": 0.2, "unit": "nM"}, {"measurement": "Kd", "setting": "IFNAR1 (Homo sapiens)", "result": 50, "unit": "nM"}]}]}
